This is an account of results in US20180371083A1 (Merck Sharp & Dohme, published 2018).

The target of assay [1] is T1, human TIGIT expressed on cells (CHO-K1 transfectants; Jurkat over-expressing human TIGIT) (human, UniProt Q495A1 25-244).
T1 sequence: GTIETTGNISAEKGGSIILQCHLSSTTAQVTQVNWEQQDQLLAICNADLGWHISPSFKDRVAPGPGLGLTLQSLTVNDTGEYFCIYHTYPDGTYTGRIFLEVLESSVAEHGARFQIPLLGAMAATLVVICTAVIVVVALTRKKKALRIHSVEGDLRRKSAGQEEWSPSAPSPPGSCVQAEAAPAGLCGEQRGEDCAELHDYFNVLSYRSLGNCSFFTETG
In words: cell-based or functional assay.

In assay [2] the target is T2, human TIGIT-His protein (extracellular domain of human TIGIT fused to His tag) (human, UniProt Q495A1 25-141).
T2 construct: also called hTIGIT-His; hTIGIT-HIS
T2 sequence: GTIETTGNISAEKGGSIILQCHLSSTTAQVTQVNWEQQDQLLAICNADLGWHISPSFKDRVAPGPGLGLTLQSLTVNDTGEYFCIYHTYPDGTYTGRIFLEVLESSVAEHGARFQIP
Description: SPR, Biacore T200; antibody captured on anti-mouse IgG, human TIGIT-His as analyte; 1:1 Langmuir fit. The method, then:
The kinetic binding activity of anti-human TIGIT antibodies 14D7 and 26B10 (made as described in Example 1) and of commercial antibody MBSA43 was measured by surface plasmon resonance using a Biacore T200 system (Biacore, GE Healthcare, Piscataway, N.J.). […] Mouse anti-human TIGIT clones, 14D7, 26B10 and MBSA43, were each injected over the immobilized anti-mouse surfaces at 1 μg/mL for a capture level of 40 RU. HBS-EP+ buffer (BR-1006-69) was used as the running buffer with a flow rate of 30 μL/min. Varying concentrations of human TIGIT-His protein, ranging from 0.29 nM to 40 nM, at a flow rate of 45 μL/min were injected over the antibody surfaces. Following each Mouse anti-human TIGIT injection cycle, the Series S CM5 chip surface was regenerated using one three-minute injection of 10 mM Glycine pH 1.7 at a flow rate of 10 μL/min.
Background subtraction binding sensorgrams were used for analyzing the rate constant of association (kₐ) and dissociation (kd), and the equilibrium dissociation constant KD. The resulting data sets were fitted with a 1:1 Langmuir Binding Model using the Biacore T200 evaluation software (version 2.0). Table 3 summarizes the affinities for the anti-human TIGIT antibodies to human TIGIT-His protein.
Background: SPR reads the build-up and loss of mass on a sensor chip optically.

Assay [3] deals with T1, human TIGIT expressed on cells (CHO-K1 …). In words: cell-based ELISA on CHO cells expressing human TIGIT (panel 'Binding to CHO-human TIGIT Cells'). (ELISA stands for enzyme-linked immunosorbent assay.)
The target of assay [4] is T3, cynomolgous/rhesus TIGIT expressed on CHO-K1 cells (cynomolgous monkey / rhesus monkey).
T3 construct: also called cyno/rhesus TIGIT; cyno/rhesus TIGIT-CHOK1 cells
T3 sequence (chain, as listed by the source): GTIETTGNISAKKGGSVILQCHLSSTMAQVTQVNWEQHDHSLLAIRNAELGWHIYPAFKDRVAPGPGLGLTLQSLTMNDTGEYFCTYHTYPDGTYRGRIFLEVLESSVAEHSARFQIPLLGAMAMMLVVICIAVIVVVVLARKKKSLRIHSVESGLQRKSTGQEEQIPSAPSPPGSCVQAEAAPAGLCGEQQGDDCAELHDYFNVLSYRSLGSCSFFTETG
In words: cell-based ELISA on CHO cells expressing rhesus TIGIT (panel 'Binding to CHO-rhesus TIGIT Cells').

For assay [5], the target named is T1, human TIGIT expressed on cells (CHO-K1 …). In words: cell-based ELISA blocking assay: binding of human CD155-huFc to CHO-hTIGIT cells in the presence of titrated antibody.

B1: mouse anti-human TIGIT antibody 14D7 (clone MEB125.14D7) (antibody, V domains shown)
VH: EVKLEESGGGLVQPGGSMKLSCVASGFTFSGAWMDWVRQSPEKGLEWVAEIRTKVNNHATNYGESVKGRFTISRDDSKSSVYLQMNNLRAEDSGIYYCRGALYDGFYFDYWGQGTTLTVSS
VL: QIVLTQSPAIMSASPGEKVNLTCSASSSVSSGYLYWYQQKPGSSPKLWIYGTSTLASGVPARFSGSGSGTSYSLTISNMEAEDAASYFCHQWSSFPYTFGGGTKLEMK
notes: Mouse IgG1/kappa; also called 14D7 (mIgG1/K); MEB125.14D7.C1.C1
On to B1, for which, in assay [1], the “EC50, rescue of IL-2 in hTIGIT-Jurkat / THP-1 co-culture with CD155-Fc or CD112-Fc” value came to 170 ng/mL. Besides, the Kd (commonly a measure of binding affinity in units of concentration) in assay [2] stood at 4.6 pM. The “EC50 (read off the curve)” value in assay [3] and in assay [4] was ~0.06 ng/mL each time. Also, the “IC50 (read off the curve)” value in assay [5] was ~80000 ng/mL.

B2: mouse anti-human TIGIT antibody 26B10 (clone MEB125.26B10) (antibody, V domains shown)
VH: EVQLQQSGPELVKPGASVKISCKTSGYTFTEFTMHWVKQSHGKSLEWIGGLKPDNGGISYNQKFKGRATLAVDKSSNTAYMELRSLTSEDSAVYYCARGAYYRYDADYWGQGTTLTVSS
VL: DIVLTQSHKFMSTSVGDRVSITCKASQDVKTAVAWYQQKSGQSPKLLIYSASYRNTGVPDRFTGSGSGTDFTFTIDSVQAEDLAVYFCQQHYSTPFTFGTGTKLELK
notes: Mouse IgG1/kappa; also called 26B10 (mIgG1/K)
For B2, the “EC50, rescue of IL-2 in hTIGIT-Jurkat / THP-1 co-culture with CD155-Fc or CD112-Fc” value in assay [1] stood at 190 ng/mL. In assay [2], this molecule returned a Kd of 140 pM. The figures for the “EC50 (read off the curve)” value in assay [3] and in assay [4] were ~0.05 ng/mL and ~0.04 ng/mL, respectively. Moreover, the “IC50 (read off the curve)” value in assay [5] is ~50000 ng/mL.
